Results as given in patent publication US20240409645A1 (DUALYX, published 2024).

T1: human IL-2 receptor (IL-2Rα/IL-2Rβ/γc) (human, UniProt P01589 22-272; P14784 27-551; P31785 23-369)
T1 sequence 1: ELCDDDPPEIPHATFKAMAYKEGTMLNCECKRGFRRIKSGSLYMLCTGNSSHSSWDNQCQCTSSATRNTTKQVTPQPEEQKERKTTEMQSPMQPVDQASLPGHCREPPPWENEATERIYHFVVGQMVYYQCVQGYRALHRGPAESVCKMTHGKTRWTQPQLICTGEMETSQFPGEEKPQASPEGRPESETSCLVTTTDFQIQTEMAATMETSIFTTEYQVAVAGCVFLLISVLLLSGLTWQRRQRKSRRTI
T1 sequence 2: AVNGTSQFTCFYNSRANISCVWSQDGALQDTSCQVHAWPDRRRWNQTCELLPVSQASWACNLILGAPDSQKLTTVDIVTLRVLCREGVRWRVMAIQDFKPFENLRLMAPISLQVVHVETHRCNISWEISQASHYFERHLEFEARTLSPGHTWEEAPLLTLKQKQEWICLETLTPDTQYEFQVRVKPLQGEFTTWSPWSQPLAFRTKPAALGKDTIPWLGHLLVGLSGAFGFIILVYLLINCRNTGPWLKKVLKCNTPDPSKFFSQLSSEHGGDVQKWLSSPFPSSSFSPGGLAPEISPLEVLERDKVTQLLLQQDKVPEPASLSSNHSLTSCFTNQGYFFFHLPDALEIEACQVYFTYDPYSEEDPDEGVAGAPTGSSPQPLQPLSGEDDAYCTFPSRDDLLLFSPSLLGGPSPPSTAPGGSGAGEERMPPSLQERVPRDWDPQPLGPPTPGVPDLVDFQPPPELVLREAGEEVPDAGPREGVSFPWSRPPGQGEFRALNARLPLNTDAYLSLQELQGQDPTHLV
T1 sequence 3: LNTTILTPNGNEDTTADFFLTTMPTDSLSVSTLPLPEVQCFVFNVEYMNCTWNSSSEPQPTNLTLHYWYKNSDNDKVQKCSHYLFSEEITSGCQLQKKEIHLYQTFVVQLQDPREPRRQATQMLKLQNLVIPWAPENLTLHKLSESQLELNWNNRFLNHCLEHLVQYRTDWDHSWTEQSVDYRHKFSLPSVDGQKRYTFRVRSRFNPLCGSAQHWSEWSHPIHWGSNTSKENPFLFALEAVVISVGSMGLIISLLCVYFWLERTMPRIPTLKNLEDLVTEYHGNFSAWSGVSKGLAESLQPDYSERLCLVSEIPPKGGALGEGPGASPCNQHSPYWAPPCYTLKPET

B1: DC00086 (other)
chain 1: EVQLVESGGGLVQAGGSLRLSCAASGGSIYTYNMGWFRQAPGKEREFVAGTLWSGGDSVYADFAKGRFTLSRENAKNTLYLQMNSLKPEDTATYYCAIDPLSLTSDWRVDELSSWGKGTLVTVSSDKTHTCPPCPAPEAAGGPSVFLFPPKPKDTLMISRTPEVTCVVVDVSHEDPEVKFNWYVDGVEVHNAKTKPREEQYNSTYRVVSVLTVLHQDWLNGKEYKCKVSNKALGAPIEKTISKAKGQPREPQVYTLPPSRDELTKNQVSLTCLVKGFYPSDIAVEWESNGQPENNYKTTPPVLDSDGSFLLYSKLTVDKSRWQQGNVFSCSVMHEALHNHYTQKSLSLSPGK
chain 2: QVQLVESGGGLVQPGGSLRLSCATSGFTFRNNFMSWVRQAPGKGLEWVSTISYGGESTTYAESVKGRFTISRDNAKNTLYLQMNNLKPEDTAVYYCAKATSYDSIRSGSRGQGTQVTVSSGGGGSGGGGSGGGGSQVQLVESGGGLVQAGGSLTLSCAAPGRTFGTDVVGWFRQAPGKEREFVASISRSGDGIYYDDSVKGRFTISRNNAWNTVNLQMNSLKVEDTAVYYCAAGDGWSTYDYWGQGTQVTVSSGGGGSGGGGSGGGGSEVQLVESGGGLVQTGGSLRLSCAASGGTFSRDAMAWFRQVPGKEREFVALISWSGATTNYADSVKGRFAISRDNGKNTVYLQMNRLKPADTAIYYCAADRRPMGSRSYFEPTEYDDWGQGTQVTVSSGGGGSGGGGSGGGGSDKTHTCPPCPAPEAAGGPSVFLFPPKPKDTLMISRTPEVTCVVVDVSHEDPEVKFNWYVDGVEVHNAKTKPREEQYNSTYRVVSVLTVLHQDWLNGKEYKCKVSNKALGAPIEKTISKAKGQPREPQVYTLPPSRDELTKNQVSLTCLVKGFYPSDIAVEWESNGQPENNYKTTPPVLDSDGSFFLYSRLTVDKSRWQQGNVFSCSVMHEALHNHYTQKSLSLSPGK
B2: DC00091 (other)
chain 1: QLQLVESGGGLVQAGDSLRLSCAASGFNFGWHAMGWFRQAPGKEREFVATITWTGRDTYYADSVRGRFTISKDNAKDTLFLQMNSLRPDDTGVYYCAKARERATWAYSEDDCDYWGQGTQVTVSSDKTHTCPPCPAPEAAGGPSVFLFPPKPKDTLMISRTPEVTCVVVDVSHEDPEVKFNWYVDGVEVHNAKTKPREEQYNSTYRVVSVLTVLHQDWLNGKEYKCKVSNKALGAPIEKTISKAKGQPREPQVYTLPPSRDELTKNQVSLTCLVKGFYPSDIAVEWESNGQPENNYKTTPPVLDSDGSFLLYSKLTVDKSRWQQGNVFSCSVMHEALHNHYTQKSLSLSPGK
chain 2: B1 chain 2
B3: DC00087 (other)
chain 1: B1 chain 1
chain 2: QVQLVESGGGLVQPGGSLRLSCATSGFTFRNNFMSWVRQAPGKGLEWVSTISYGGESTTYAESVKGRFTISRDNAKNTLYLQMNNLKPEDTAVYYCAKATSYDSIRSGSRGQGTQVTVSSGGGGSGGGGSGGGGSEVQLVESGGGLVQTGGSLRLSCAASGGTFSRDAMAWFRQVPGKEREFVALISWSGATTNYADSVKGRFAISRDNGKNTVYLQMNRLKPADTAIYYCAADRRPMGSRSYFEPTEYDDWGQGTQVTVSSGGGGSGGGGSGGGGSQVQLVESGGGLVQAGGSLTLSCAAPGRTFGTDVVGWFRQAPGKEREFVASISRSGDGIYYDDSVKGRFTISRNNAWNTVNLQMNSLKVEDTAVYYCAAGDGWSTYDYWGQGTQVTVSSGGGGSGGGGSGGGGSDKTHTCPPCPAPEAAGGPSVFLFPPKPKDTLMISRTPEVTCVVVDVSHEDPEVKFNWYVDGVEVHNAKTKPREEQYNSTYRVVSVLTVLHQDWLNGKEYKCKVSNKALGAPIEKTISKAKGQPREPQVYTLPPSRDELTKNQVSLTCLVKGFYPSDIAVEWESNGQPENNYKTTPPVLDSDGSFFLYSRLTVDKSRWQQGNVFSCSVMHEALHNHYTQKSLSLSPGK
B4: DC00090 (other)
chain 1: B2 chain 1
chain 2: EVQLVESGGGLVQTGGSLRLSCAASGGTFSRDAMAWFRQVPGKEREFVALISWSGATTNYADSVKGRFAISRDNGKNTVYLQMNRLKPADTAIYYCAADRRPMGSRSYFEPTEYDDWGQGTQVTVSSGGGGSGGGGSGGGGSQVQLVESGGGLVQPGGSLRLSCATSGFTFRNNFMSWVRQAPGKGLEWVSTISYGGESTTYAESVKGRFTISRDNAKNTLYLQMNNLKPEDTAVYYCAKATSYDSIRSGSRGQGTQVTVSSGGGGSGGGGSGGGGSQVQLVESGGGLVQAGGSLTLSCAAPGRTFGTDVVGWFRQAPGKEREFVASISRSGDGIYYDDSVKGRFTISRNNAWNTVNLQMNSLKVEDTAVYYCAAGDGWSTYDYWGQGTQVTVSSGGGGSGGGGSGGGGSDKTHTCPPCPAPEAAGGPSVFLFPPKPKDTLMISRTPEVTCVVVDVSHEDPEVKFNWYVDGVEVHNAKTKPREEQYNSTYRVVSVLTVLHQDWLNGKEYKCKVSNKALGAPIEKTISKAKGQPREPQVYTLPPSRDELTKNQVSLTCLVKGFYPSDIAVEWESNGQPENNYKTTPPVLDSDGSFFLYSRLTVDKSRWQQGNVFSCSVMHEALHNHYTQKSLSLSPGK
B5: DC00092 (other)
chain 1: B2 chain 1
chain 2: B3 chain 2

The binders below were run against T1, human IL-2 receptor (IL-2Rα/IL-2Rβ/γc) (assay: cell-based or functional assay).

| EC50 (nM) pSTAT5, NK, human PBMCs | EC50 (nM) pSTAT5, Treg, human PBMCs | Fold Max signal (% pSTAT5+) Treg/NK | Max signal (% pSTAT5+), NK | Max signal (% pSTAT5+), Treg | fold EC50 NK/Treg | Binder |
| --- | --- | --- | --- | --- | --- | --- |
| 0.187 nM | 0.00441 nM | 9 fold | 4.9 % pSTAT5+ | 44.1 % pSTAT5+ | 42 fold | B1 |
| 0.307 nM | < 0.1 pM | 5 fold | 14.5 % pSTAT5+ | 67.7 % pSTAT5+ | > 3070 fold | B2 |
| 0.00972 nM | – | 3 fold | 1.4 % pSTAT5+ | 4.37 % pSTAT5+ | – | B3 |
| 0.572 nM | < 0.1 pM | 9 fold | 2.67 % pSTAT5+ | 23.5 % pSTAT5+ | > 5720 fold | B4 |
| – | < 0.1 pM | 6 fold | 4.82 % pSTAT5+ | 26.7 % pSTAT5+ | – | B5 |
